Test results from patent US20160083461A1 (PHILOGEN S P A, published 2016).

Tests used:
[1] = biological target: T1, antigen (11A12) containing the ED-A domain of human fibronectin (human, UniProt P02751 1629-1905); test: SPR (BIAcore), monomeric scFv over 11A12 immobilised on CM5 chip
T1 construct: Immobilised on a CM5 chip by amine coupling
Description: The kₒₙ, koff and KD of the parent anti-ED-A antibody and anti-ED-A antibodies B2, C5, D5, C8, F8, B7 and G9 were evaluated using Surface Plasmon Resonance. The chip was equilibrated over night with the same buffer used during the assay at a buffer flow rate of 5 μl/min. The whole coating procedure was performed at this flow rate. The antigen 11A12 was diluted 1:25 with acetate buffer pH 4.00 (provided by BIACORE) to a final concentration of 20 μg/ml. The NHS and EDC were then mixed and 50 μl injected to activate the COOH groups on the CM5 chip. This was followed by injection of 40 μl of the antigen (this lasts about 40″). Then 30 μl of Ethanolammine were injected in order to block the reactivity of eventual free COOH.
Each sample was assayed at a flow rate 20 μl/min. 20 μl of undiluted monomeric protein (as it comes out from the gel filtration) was injected. The dissociation time was left to run for about 200″. Then 10 μl of HCl 10 mM was injected to regenerate the chip. The injection of monomeric protein was repeated at different dilutions, i.e. 1:2 dilution (in PBS) followed by regeneration with HCl. This was followed by a third injection of the protein, at a dilution of 1:4 followed again by regeneration with HCl. The kₒₙ, koff and KD values for each anti-ED-A antibody were evaluated using the BIAevaluation software.

[2] = biological target: T1, antigen (11A12) containing the ED-A …; test: SPR (BIAcore analysis 1), bacterial supernatant of scFv over immobilised 11A12; flatter dissociation curve than the parent
Description: The BIAcore Chip was flushed overnight at a flow rate of 5 μl/min with HBS-EP buffer BIACORE, 0.01 M Hepes pH 7.4, 0.15 M NaCl, 3 mM EDTA, 0.005% surfactant P20 (same buffer used for the assay). The antigen (11A12) was diluted to a concentration of 50 μg/ml in acetate buffer (pH 4.0) and the COOH groups on the chip were activated by injection of 50 μl of a mix of N-Hydroxy Succinimmide (NHS) and ethyl-N-(dimethylaminopropyl)-carbodiimide (EDC). 40 μl of the 11A12 antigen were injected onto the chip and the residual free COOH groups were blocked with 30 μl of ethanolamine. After a 0.22 μm filtration, 20 μl of each individual bacterial supernatant were injected onto the chip and interaction with the antigen was monitored in real time.
The association curves of antibodies H1, C5, D5, E5, C8, F8 and F1 were flatter than that observed for the parent anti-ED-A antibody while the association curve observed for antibodies B2, B7, E8 and G9 was as steep as the association curve observed for the parent anti-ED-A antibody. However, as bacterial supernatants of IFTG-induced E. coli TG-1 cells were used for the BIAcore analysis of antibodies H1, B2, C5, D5, E5, C8, F8, F1, B7, E8 and G9, the concentration of the tested antibody samples was unknown but most probably lower than the concentration of the parent anti-ED-A antibody sample used for comparison. Consequently, the association curve of antibodies H1, B2, C5, D5, E5, C8, F8, F1, B7, E8 and G9 may be artificially low due to the low concentration of antibody in the samples used for the BIAcore analysis.

T1 sequence (P02751 other isoform, or with tags, fused parts or gaps limits assumed): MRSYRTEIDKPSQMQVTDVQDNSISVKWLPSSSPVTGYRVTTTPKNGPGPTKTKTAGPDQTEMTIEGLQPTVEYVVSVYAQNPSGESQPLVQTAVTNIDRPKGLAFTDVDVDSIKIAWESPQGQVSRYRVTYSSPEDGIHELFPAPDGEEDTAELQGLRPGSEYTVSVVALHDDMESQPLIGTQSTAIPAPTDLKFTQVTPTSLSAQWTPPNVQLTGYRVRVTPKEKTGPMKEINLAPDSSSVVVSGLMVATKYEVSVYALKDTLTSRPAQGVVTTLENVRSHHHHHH

| Kd [1] [nM] | koff [1] [s⁻¹] | kon [1] [M⁻¹ s⁻¹] | binding result [2] | Binder |
| --- | --- | --- | --- | --- |
| ~16.8 | 0.0045 | 267000 |  | anti-ED-A antibody B7 (scFv, scFv; Supernatant in BIAcore analysis 1, purified monomeric fraction in BIAcore analysis 2) scFv: EVQLVESGGGLVQPGGSLRLSCAASGFTFSHFDMSWVRQAPGKGLEWVSAISGSGGSTYYADSVKGRFTISRDNSKNTLYLQMNSLRAEDTAVYYCAKSTHLYLFDYWGQGTLVTVSSGGGGSGGGGSGGGGSGGGGSEIVLTQSPGTLSLSPGEKATLSCRASQSVSLAFLAWYQQKPGQAPRLLIYGASSRATGIPDRFSGSGSGTDFTLTISRLEPEDFAVYYCQQMRGRPPTFGQGTKVEIKAAAEQKLISEEDLNGAA |
| ~20.9 | 0.00754 | 360000 |  | anti-ED-A antibody G9 (scFv, scFv; Supernatant in BIAcore analysis 1, purified monomeric fraction in BIAcore analysis 2) scFv: EVQLVESGGGLVQPGGSLRLSCAASGFTFSHMQMSWVRQAPGKGLEWVSAISGSGGSTYYADSVKGRFTISRDNSKNTLYLQMNSLRAEDTAVYYCAKSTHLYLFDYWGQGTLVTVSSGGGGSGGGGSGGGGSGGGGSEIVLTQSPGTLSLSPGEKATLSCRASQSVSTAFLAWYQQKPGQAPRLLIYGASSRATGIPDRFSGSGSGTDFTLTISRLEPEDFAVYYCQQMRGRPPTFGQGTKVEIKAAAEQKLISEEDLNGAA |
| ~3.1 | 0.0014 | 465000 |  | anti-ED-A antibody F8 (scFv, scFv format, not the F8 diabody; Supernatant in BIAcore analysis 1, purified monomeric fraction in BIAcore analysis 2; also called anti-ED-A scFv F8) scFv: EVQLVESGGGLVQPGGSLRLSCAASGFTFSLFTMSWVRQAPGKGLEWVSAISGSGGSTYYADSVKGRFTISRDNSKNTLYLQMNSLRAEDTAVYYCAKSTHLYLFDYWGQGTLVTVSSGGGGSGGGGSGGGGSGGGGSEIVLTQSPGTLSLSPGEKATLSCRASQSVSMPFLAWYQQKPGQAPRLLIYGASSRATGIPDRFSGSGSGTDFTLTISRLEPEDFAVYYCQQMRGRPPTFGQGTKVEIKAAAEQKLISEEDLNGAA |
|  |  |  | binds | anti-ED-A antibody E8 (scFv, scFv, tested as bacterial supernatant in BIAcore analysis 1) scFv: EVQLVESGGGLVQPGGSLRLSCAASGFTFSDMHMSWVRQAPGKGLEWVSAISGSGGSTYYADSVKGRFTISRDNSKNTLYLQMNSLRAEDTAVYYCAKSTHLYLFDYWGQGTLVTVSSGGGGSGGGGSGGGGSGGGGSEIVLTQSPGTLSLSPGEKATLSCRASQSVSSSFLAWYQQKPGQAPRLLIYGASSRATGIPDRFSGSGSGTDFTLTISRLEPEDFAVYYCQQMRGRPPTFGQGTKVEIKAAAEQKLISEEDLNGAA |
|  |  |  | binds | anti-ED-A antibody F1 (scFv, scFv, tested as bacterial supernatant (E. coli TG-1) in BIAcore analysis 1) scFv: EVQLVESGGGLVQPGGSLRLSCAASGFTFSQARMSWVRQAPGKGLEWVSAISGSGGSTYYADSVKGRFTISRDNSKNTLYLQMNSLRAEDTAVYYCAKSTHLYLFDYWGQGTLVTVSSGGGGSGGGGSGGGGSGGGGSEIVLTQSPGTLSLSPGEKATLSCRASQSVSAPFLAWYQQKPGQAPRLLIYGASSRATGIPDRFSGSGSGTDFTLTISRLEPEDFAVYYCQQMRGRPPTFGQGTKVEIKAAAEQKLISEEDLNGAA |
| ~14 | 0.0053 | 380000 |  | anti-ED-A antibody C8 (scFv, scFv; Supernatant in BIAcore analysis 1, purified monomeric fraction in BIAcore analysis 2) scFv: EVQLVESGGGLVQPGGSLRLSCAASGFTFSLQTMSWVRQAPGKGLEWVSAISGSGGSTYYADSVKGRFTISRDNSKNTLYLQMNSLRAEDTAVYYCAKSTHLYLFDYWGQGTLVTVSSGGGGSGGGGSGGGGSGGGGSEIVLTQSPGTLSLSPGEKATLSCRASQSVSLPFLAWYQQKPGQAPRLLIYGASSRATGIPDRFSGSGSGTDFTLTISRLEPEDFAVYYCQQMRGRPPTFGQGTKVEIKAAAEQKLISEEDLNGAA |
| ~20 | 0.00754 | 380000 |  | anti-ED-A antibody B2 (scFv, scFv; Supernatant in BIAcore analysis 1, purified monomeric fraction in BIAcore analysis 2) scFv: EVQLVESGGGLVQPGGSLRLSCAASGFTFSAAKMSWVRQAPGKGLEWVSAISGSGGSTYYADSVKGRFTISRDNSKNTLYLQMNSLRAEDTAVYYCAKSTHLYLFDYWGQGTLVTVSSGGGGSGGGGSGGGGSGGGGSEIVLTQSPGTLSLSPGEKATLSCRASQSVSVAFLAWYQQKPGQAPRLLIYGASSRATGIPDRFSGSGSGTDFTLTISRLEPEDFAVYYCQQMRGRPPTFGQGTKVEIKAAAEQKLISEEDLNGAA |
| ~17 | 0.0076 | 453000 |  | anti-ED-A antibody D5 (scFv, scFv; Supernatant in BIAcore analysis 1, purified monomeric fraction in BIAcore analysis 2) scFv: EVQLVESGGGLVQPGGSLRLSCAASGFTFSVMKMSWVRQAPGKGLEWVSAISGSGGSTYYADSVKGRFTISRDNSKNTLYLQMNSLRAEDTAVYYCAKSTHLYLFDYWGQGTLVTVSSGGGGSGGGGSGGGGSGGGGSEIVLTQSPGTLSLSPGEKATLSCRASQSVSNAFLAWYQQKPGQAPRLLIYGASSRATGIPDRFSGSGSGTDFTLTISRLEPEDFAVYYCQQMRGRPPTFGQGTKVEIKAAAEQKLISEEDLNGAA |
|  |  |  | binds | anti-ED-A antibody H1 (scFv, scFv, tested as bacterial supernatant in BIAcore analysis 1; Tags from the pHEN1 vector are not described) scFv: EVQLVESGGGLVQPGGSLRLSCAASGFTFSPRRMSWVRQAPGKGLEWVSAISGSGGSTYYADSVKGRFTISRDNSKNTLYLQMNSLRAEDTAVYYCAKSTHLYLFDYWGQGTLVTVSSGGGGSGGGGSGGGGSGGGGSEIVLTQSPGTLSLSPGEKATLSCRASQSVSSAWLAWYQQKPGQAPRLLIYGASSRATGIPDRFSGSGSGTDFTLTISRLEPEDFAVYYCQQMRGRPPTFGQGTKVEIKAAAEQKLISEEDLNGAA |
| ~30 | 0.00923 | 304000 |  | anti-ED-A antibody C5 (scFv, scFv; Supernatant in BIAcore analysis 1, purified monomeric fraction in BIAcore analysis 2) scFv: EVQLVESGGGLVQPGGSLRLSCAASGFTFSPITMSWVRQAPGKGLEWVSAISGSGGSTYYADSVKGRFTISRDNSKNTLYLQMNSLRAEDTAVYYCAKSTHLYLFDYWGQGTLVTVSSGGGGSGGGGSGGGGSGGGGSEIVLTQSPGTLSLSPGEKATLSCRASQSVSLHFLAWYQQKPGQAPRLLIYGASSRATGIPDRFSGSGSGTDFTLTISRLEPEDFAVYYCQQMRGRPPTFGQGTKVEIKAAAEQKLISEEDLNGAA |
|  |  |  | binds | anti-ED-A antibody E5 (scFv, scFv, tested as bacterial supernatant in BIAcore analysis 1) scFv: EVQLVESGGGLVQPGGSLRLSCAASGFTFSTGSMSWVRQAPGKGLEWVSAISGSGGSTYYADSVKGRFTISRDNSKNTLYLQMNSLRAEDTAVYYCAKSTHLYLFDYWGQGTLVTVSSGGGGSGGGGSGGGGSGGGGSEIVLTQSPGTLSLSPGEKATLSCRASQSVSLAHLAWYQQKPGQAPRLLIYGASSRATGIPDRFSGSGSGTDFTLTISRLEPEDFAVYYCQQMRGRPPTFGQGTKVEIKAAAEQKLISEEDLNGAA |
